In patent publication US20050064507:

What was measured:
[1] = molecular target: T1, AF15q14 peptide GFLNEPLSSKSQRRKSLKLK (SEQ ID NO:132) (not fully specified)
T1 chain: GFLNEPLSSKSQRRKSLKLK

[2] = molecular target: T2, ARHGAP6 peptide DGQKRKKSLRKKLD (SEQ ID NO:92) (not fully specified)
T2 chain: DGQKRKKSLRKKLD

[3] = molecular target: T3, ASIP peptide KKRSSKKEASMKKVVRP (SEQ ID NO:97) (not fully specified)
T3 chain: KKRSSKKEASMKKVVRP

[4] = molecular target: T4, CHRM1 peptide RKIPKRPGSVHRTPSRQ (SEQ ID NO:83) (not fully specified)
T4 chain: RKIPKRPGSVHRTPSRQ

[5] = molecular target: T5, DGKZ peptide KKKKRASFKRKSSKKG (SEQ ID NO:77) (not fully specified)
T5 chain: KKKKRASFKRKSSKKG

[6] = molecular target: T6, GABA A receptor beta 2 peptide ERHVAQKKSRLRRRASQLKI (SEQ ID NO:142) (not fully specified)
T6 chain: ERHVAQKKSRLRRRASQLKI

[7] = molecular target: T7, HERG peptide TELEGGFSRQRKRKLSFRRR (SEQ ID NO:140) (not fully specified)
T7 chain: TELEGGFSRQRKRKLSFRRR

[8] = molecular target: T8, MAP3K14 peptide WKGKRRSKARKKRK (SEQ ID NO:100) (not fully specified)
T8 chain: WKGKRRSKARKKRK

[9] = molecular target: T9, MARCKS peptide KKKKKRFSFKKSFKL (SEQ ID NO:80) (not fully specified)
T9 chain: KKKKKRFSFKKSFKL

[10] = molecular target: T10, MCM2 peptide VQRHRSMRKTFARYLSFRRD (SEQ ID NO:129) (not fully specified)
T10 chain: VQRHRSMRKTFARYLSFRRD

[11] = molecular target: T11, MLK3 peptide HVRRRRGTFKRSKLRARD (SEQ ID NO:76) (not fully specified)
T11 chain: HVRRRRGTFKRSKLRARD

[12] = molecular target: T12, MLK3 peptide QQVDRERPHVRRRRGTFKRS (SEQ ID NO:128) (not fully specified)
T12 chain: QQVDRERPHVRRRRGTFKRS

[13] = molecular target: T13, MYBPC3 peptide LLKKRDSFRTPRDSKLE (SEQ ID NO:103) (not fully specified)
T13 chain: LLKKRDSFRTPRDSKLE

[14] = molecular target: T14, NF1 peptide SQVQKQRSAGSFKRNSIKKI (SEQ ID NO:127) (not fully specified)
T14 chain: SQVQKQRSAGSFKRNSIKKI

[15] = molecular target: T15, NIK peptide TEGKMARVAWKGKRRSKARK (SEQ ID NO:164) (not fully specified)
T15 chain: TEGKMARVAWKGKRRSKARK

[16] = molecular target: T16, PARIS1 peptide EYLERRASRRRAV (SEQ ID NO:130) (not fully specified)
T16 chain: EYLERRASRRRAV

[17] = molecular target: T17, PLEK peptide KFARKSTRRSIRLPE (SEQ ID NO:78) (not fully specified)
T17 chain: KFARKSTRRSIRLPE

[18] = molecular target: T18, SDPR peptide EKIKRSSLKKVDSLKK (SEQ ID NO:104) (not fully specified)
T18 chain: EKIKRSSLKKVDSLKK

[19] = molecular target: T19, SMARCA5 peptide MAQIERGEARIQRRISIKKA (SEQ ID NO:166) (not fully specified)
T19 chain: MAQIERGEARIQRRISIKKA

[20] = molecular target: T20, SYTL4 peptide RQGKRKTSIKRDTVNPL (SEQ ID NO:87) (not fully specified)
T20 chain: RQGKRKTSIKRDTVNPL

[21] = molecular target: T21, cyclophilin G peptide TEEKSKKRKKKHRKNSRKHK (SEQ ID NO:165) (not fully specified)
T21 chain: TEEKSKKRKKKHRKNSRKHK

[22] = molecular target: T22, dag kinase iota peptide NRKKKRTSFKRKA (SEQ ID NO:115) (not fully specified)
T22 chain: NRKKKRTSFKRKA

[23] = molecular target: T23, dag kinase iota peptide NRKKKRTSFKRKA (SEQ ID NO:117) (not fully specified)
T23 chain: NRKKKRTSFKRKA

[24] = molecular target: T24, dag kinase zeta peptide KKKKRASFKRKSSKKG (SEQ ID NO:114) (not fully specified)
T24 chain: KKKKRASFKRKSSKKG

[25] = molecular target: T25, dag kinase zeta peptide RPQNTLKASKKKKRASFKRK (SEQ ID NO:118) (not fully specified)
T25 chain: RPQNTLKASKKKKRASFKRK

[26] = molecular target: T26, fit1 peptide VQMTWSYPDEKNKRASVRRR (SEQ ID NO:158) (not fully specified)
T26 chain: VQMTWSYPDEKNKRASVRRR

[27] = molecular target: T27, p164-RhoGEF peptide PRLIRRGSKKRPAR (SEQ ID NO:124) (not fully specified)
T27 chain: PRLIRRGSKKRPAR

[28] = molecular target: T28, phospholemman peptide EEGTFRSSIRRLSTRRR (SEQ ID NO:116) (not fully specified)
T28 chain: EEGTFRSSIRRLSTRRR

[29] = molecular target: T29, ribosomal protein S6 peptide AKRRRLSSLRASTSK (SEQ ID NO:120) (not fully specified)
T29 chain: AKRRRLSSLRASTSK

[30] = molecular target: T30, slp4 peptide TYLLPDKSRQGKRKTSIKRD (SEQ ID NO:153) (not fully specified)
T30 chain: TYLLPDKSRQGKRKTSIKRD

[31] = molecular target: T31, splicing factor, arginine/serine-rich 4 peptide RSRSRSRSKSKDKRKSRKRS (SEQ ID NO:134) (not fully specified)
T31 chain: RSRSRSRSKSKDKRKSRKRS

B1: PKC-epsilon (protein)
chain: MVVFNGLLKIKICEAVSLKPTAWSLRHAVGPRPQTFLLDPYIALNVDDSRIGQTATKQKTNSPAWHDEFVTDVCNGRKIELAVFHDAPIGYDDFVANCTIQFEELLQNGSRHFEDWIDLEPEGRVYVIIDLSGSSGEAPKDNEERVFRERMRPRKRQGAVRRRVHQVNGHKFMATYLRQPTYCSHCRDFIWGVIGKQGYQCQVCTCVVHKRCHELIITKCAGLKKQETPDQVGSQRFSVNMPHKFGIHNYKVPTFCDHCGSLLWGLLRQGLQCKVCKMNVHRRCETNVAPNCGVDARGIAKVLADLGVTPDKITNSGQRRKKLIAGAESPQPASGSSPSEEDRSKSAPTSPCDQEIKELENNIRKALSFDNRGEEHRAASSPDGQLMSPGENGEVRQGQAKRLGLDEFNFIKVLGKGSFGKVMLAELKGKDEVYAVKVLKKDVILQDDDVDCTMTEKRILALARKHPYLTQLYCCFQTKDRLFFVMEYVNGGDLMFQIQRSRKFDEPRSRFYAAEVTSALMFLHQHGVIYRDLKLDNILLDAEGHCKLADFGMCKEGILNGVTTTTFCGTPDYIAPEILQELEYGPSVDWWALGVLMYEMMAGQPPFEADNEDDLFESILHDDVLYPVWLSKEAVSILKAFMTKNPHKRLGCVASQNGEDAIKQHPFFKEIDWVLLEQKKIKPPFKPRIKTKRDVNNFDQDFTREEPVLTLVDEAIVKQINQEEFKGFSYFGEDLMP
in vitro phosphorylation, 1 uM peptide (% of best substrate) [1]: 47
in vitro phosphorylation (% of best substrate) [2]: 51
in vitro phosphorylation (% of best substrate) [3]: 16
in vitro phosphorylation (% of best substrate) [4]: 47
in vitro phosphorylation (% of best substrate) [5]: 71
in vitro phosphorylation, 1 uM peptide (% of best substrate) [6]: 28
in vitro phosphorylation, 1 uM peptide (% of best substrate) [7]: 27
in vitro phosphorylation (% of best substrate) [8]: 13
in vitro phosphorylation (% of best substrate) [9]: 71
in vitro phosphorylation, 1 uM peptide (% of best substrate) [10]: 65
in vitro phosphorylation (% of best substrate) [11]: 100
in vitro phosphorylation, 1 uM peptide (% of best substrate) [12]: 32
in vitro phosphorylation (% of best substrate) [13]: 21
in vitro phosphorylation, 1 uM peptide (% of best substrate) [14]: 32
in vitro phosphorylation, 1 uM peptide (% of best substrate) [15]: 12
in vitro phosphorylation, 1 uM peptide (% of best substrate) [16]: 46
in vitro phosphorylation (% of best substrate) [17]: 84
in vitro phosphorylation (% of best substrate) [18]: 17
in vitro phosphorylation, 1 uM peptide (% of best substrate) [19]: 10
in vitro phosphorylation (% of best substrate) [20]: 31
in vitro phosphorylation, 1 uM peptide (% of best substrate) [21]: 12
in vitro phosphorylation, 1 uM peptide (% of best substrate) [22]: 91
in vitro phosphorylation, 1 uM peptide (% of best substrate) [23]: 67
in vitro phosphorylation, 1 uM peptide (% of best substrate) [24]: 100
in vitro phosphorylation, 1 uM peptide (% of best substrate) [25]: 89
in vitro phosphorylation, 1 uM peptide (% of best substrate) [26]: 11
in vitro phosphorylation, 1 uM peptide (% of best substrate) [27]: 49
in vitro phosphorylation, 1 uM peptide (% of best substrate) [28]: 92
in vitro phosphorylation, 1 uM peptide (% of best substrate) [29]: 56
in vitro phosphorylation, 1 uM peptide (% of best substrate) [30]: 24
in vitro phosphorylation, 1 uM peptide (% of best substrate) [31]: 32

B2: PKC-theta (protein)
chain: MSPFLRIGLSNFDCGSCQSCQGEAVNPYCAVLVKEYVESENGQMYIQKKPTMYPPWDSTFDAHINKGRVMQIIVKGKNVDLISETTVELYSLAERCRKNNGKTEIWLELKPQGRMLMNARYFLEMSDTKDMNEFETEGFFALHQRRGAIKQAKVHHVKCHEFTATFFPQPTFCSVCHEFVWGLNKQGYQCRQCNAAIHKKCIDKVIAKCTGSAINSRETMFHKERFKIDMPHRFKVYNYKSPTFCEHCGTLLWGLARQGLKCDACGMNVHHRCQTKVANLCGINQKLMAEALAMIESTQQARCLRDTEQIFREGPVEIGLPCSIKNEARPPCLPTPGKREPQGISWESPLDEVDKMCHLPEPELNKERPSLQIKLKIEDFILHKMLGKGSFGKVFLAEFKKTNQFFAIKALKKDVVLMDDDVECTMVEKRVLSLAWEHPFLTHMFCTFQTKENLFFVMEYLNGGDLMYHIQSCHKFDLSRATFYAAEIILGLQFLHSKGIVYRDLKLDNILLDKDGHIKIADFGMCKENMLGDAKTNTFCGTPDYIAPEILLGQKYNHSVDWWSFGVLLYEMLIGQSPFHGQDEEELFHSIRMDNPFYPRWLEKEAKDLLVKLFVREPEKRLGVRGDIRQHPLFREINWEELERKEIDPPFRPKVKSPFDCSNFDKEFLNEKPRLSFADRALINSMDQNMFRNFSFMNPGMERLIS
in vitro phosphorylation, 1 uM peptide (% of best substrate) [1]: 34
in vitro phosphorylation, 10 uM peptide (% of best substrate) [1]: 40
in vitro phosphorylation (% of best substrate) [2]: 47
in vitro phosphorylation (% of best substrate) [3]: 31
in vitro phosphorylation (% of best substrate) [4]: 92
in vitro phosphorylation (% of best substrate) [5]: 74
in vitro phosphorylation, 1 uM peptide (% of best substrate) [6]: 28
in vitro phosphorylation, 10 uM peptide (% of best substrate) [6]: 37
in vitro phosphorylation, 1 uM peptide (% of best substrate) [7]: 25
in vitro phosphorylation, 10 uM peptide (% of best substrate) [7]: 35
in vitro phosphorylation (% of best substrate) [8]: 56
in vitro phosphorylation (% of best substrate) [9]: 63
in vitro phosphorylation, 1 uM peptide (% of best substrate) [10]: 48
in vitro phosphorylation, 10 uM peptide (% of best substrate) [10]: 25
Peptide phosphorylation by PKC-theta [11]: 99
in vitro phosphorylation (% of best substrate) [11]: 100
in vitro phosphorylation, 1 uM peptide (% of best substrate) [12]: 41
in vitro phosphorylation, 10 uM peptide (% of best substrate) [12]: 59
in vitro phosphorylation (% of best substrate) [13]: 24
in vitro phosphorylation, 1 uM peptide (% of best substrate) [14]: 45
in vitro phosphorylation, 10 uM peptide (% of best substrate) [14]: 58
in vitro phosphorylation, 1 uM peptide (% of best substrate) [15]: 24
in vitro phosphorylation, 10 uM peptide (% of best substrate) [15]: 20
in vitro phosphorylation, 1 uM peptide (% of best substrate) [16]: 38
in vitro phosphorylation, 10 uM peptide (% of best substrate) [16]: 44
in vitro phosphorylation (% of best substrate) [17]: 47
in vitro phosphorylation (% of best substrate) [18]: 25
in vitro phosphorylation, 1 uM peptide (% of best substrate) [19]: 13
in vitro phosphorylation, 10 uM peptide (% of best substrate) [19]: 13
in vitro phosphorylation (% of best substrate) [20]: 65
in vitro phosphorylation, 1 uM peptide (% of best substrate) [21]: 16
in vitro phosphorylation, 10 uM peptide (% of best substrate) [21]: 14
in vitro phosphorylation, 1 uM peptide (% of best substrate) [22]: 89
in vitro phosphorylation, 10 uM peptide (% of best substrate) [22]: 77
in vitro phosphorylation, 1 uM peptide (% of best substrate) [23]: 84
in vitro phosphorylation, 10 uM peptide (% of best substrate) [23]: 78
in vitro phosphorylation, 1 uM peptide (% of best substrate) [24]: 100
in vitro phosphorylation, 10 uM peptide (% of best substrate) [24]: 86
in vitro phosphorylation, 1 uM peptide (% of best substrate) [25]: 67
in vitro phosphorylation, 10 uM peptide (% of best substrate) [25]: 52
in vitro phosphorylation, 1 uM peptide (% of best substrate) [26]: 19
in vitro phosphorylation, 10 uM peptide (% of best substrate) [26]: 23
in vitro phosphorylation, 1 uM peptide (% of best substrate) [27]: 53
in vitro phosphorylation, 10 uM peptide (% of best substrate) [27]: 57
in vitro phosphorylation, 1 uM peptide (% of best substrate) [28]: 83
in vitro phosphorylation, 10 uM peptide (% of best substrate) [28]: 78
in vitro phosphorylation, 1 uM peptide (% of best substrate) [29]: 51
in vitro phosphorylation, 10 uM peptide (% of best substrate) [29]: 51
in vitro phosphorylation, 1 uM peptide (% of best substrate) [30]: 22
in vitro phosphorylation, 10 uM peptide (% of best substrate) [30]: 18
in vitro phosphorylation, 1 uM peptide (% of best substrate) [31]: 36
in vitro phosphorylation, 10 uM peptide (% of best substrate) [31]: 16
